In patent US20230151089A1 (SYNGLE THERAPEUTICS B V, published 2023):

Assays:
[1] = target: T1, alpha-synuclein oligomers (UniProt P37840 1-140); assay: ELISA, read from the graph, reference alpha-Syn monomer
[2] = target: T1, alpha-synuclein oligomers; assay: ELISA, alpha-Syn oligomer coated plate
[3] = target: T1, alpha-synuclein oligomers; assay: ELISA on alpha-Syn oligomer coat; half of the highest OD 450 nm, drawn table
[4] = target: T1, alpha-synuclein oligomers; assay: ELISA on alpha-Syn oligomer coat; row 'Titre (nM)' of the drawn table, concentration at DO (50%)
[5] = target: T1, alpha-synuclein oligomers; assay: ELISA, alpha-Syn oligomer coated plate, exp 1
Experimental: (§1) Binding affinities (EC50 values) towards different antigens were determined from ELISA experiments using antigen coated plates as follows. Absorbance data was corrected for background absorption obtained by incubating antigen coated plates without adding primary antibody but keeping all other parameters constant. The background corrected absorbance values were then plotted against the log value of the antibody concentration.
(§2) The curve was fitted using the Graphpad Prism software using the common binding function Abs450=Max/(1+10\hat{ }(([Log EC50−Log Ab]))) where “Abs450” is the background corrected experimental absorption, “Max” is the absorption upon complete binding saturation, “Log EC50” is the log of the EC50 value and “Log Ab” is the log of the antibody concentration.

[6] = target: T1, alpha-synuclein oligomers; assay: ELISA, alpha-Syn oligomer coated plate, exp 2
Experimental: as §1, §2

[7] = target: T1, alpha-synuclein oligomers; assay: ELISA, ratio of binding affinities, reference alpha-Syn fibrils (FIG. 3)
Experimental: as §1, §2

[8] = target: T1, alpha-synuclein oligomers; assay: ELISA, ratio of EC50 values, reference alpha-Syn fibrils
Experimental: as §1, §2

[9] = target: T1, alpha-synuclein oligomers; assay: ELISA on plates coated with ASO, ABO, AB fibrils, TAU oligo, TAU fibrils or no coat; antibody titrated, OD 450 nm
[10] = target: T1, alpha-synuclein oligomers; assay: ELISA on antigen-coated plate, antibody titrated in tenfold steps, OD 450-630 nm
Experimental: as §1, §2

[11] = target: T1, alpha-synuclein oligomers; assay: ELISA, alpha-Syn oligomer coated plate, exp 3
Experimental: as §1, §2

Row | specificity ratio of alpha-Syn oligomer compared to alpha-Syn monomer [1] | EC50 [2] | DO (50%) [3] | EC50 [4] | EC50 [5] | EC50 [6] | binding affinity ratio alpha-Syn oligomers:alpha-Syn fibrils [7] | fold preference over alpha-Syn fibrils [8] | EC50 (read off the curve) [9] | EC50 (read off the curve) [10] | EC50 [11] | Binder
1 | ≥ 100 | ~2 nM | 0.904 | 2.03 nM |  |  |  |  |  |  |  | 26F1 TaFv (tandem single-chain variable fragment) (scFv) scFv: DVQLQESGPGLVKPSQSLSLTCTVTGYSITSDYAWNWIRQFPGNKLEWLGYISYSGNTYYNPSLKSRISITRDTSKNQFFLHLNSVTTEDTATYYCAGNYVRWGQGTLVTVSAGGGGSGGGGSGGGGSDVVMTQTPLTLSVTIGQPASISCKSSQSLLYTNGKTYLNWLLQRPGQSPKRLIYLVSKLDSGVPDRFSGSGSGTDFTLKISRVEAEDLGVYYCLQSSHFPHTFGSGTKLEIKGGGGSDVQLQESGPGLVKPSQSLSLTCTVTGYSITSDYAWNWIRQFPGNKLEWLGYISYSGNTYYNPSLKSRISITRDTSKNQFFLHLNSVTTEDTATYYCAGNYVRWGQGTLVTVSAGGGGSGGGGSGGGGSDVVMTQTPLTLSVTIGQPASISCKSSQSLLYTNGKTYLNWLLQRPGQSPKRLIYLVSKLDSGVPDRFSGSGSGTDFTLKISRVEAEDLGVYYCLQSSHFPHTFGSGTKLEIK
2 | ≥ 100 | ~3.7 nM | 0.744 | 3.66 nM |  |  |  |  |  |  |  | 26F1 scFv (single-chain variable fragment) (scFv) scFv: DVQLQESGPGLVKPSQSLSLTCTVTGYSITSDYAWNWIRQFPGNKLEWLGYISYSGNTYYNPSLKSRISITRDTSKNQFFLHLNSVTTEDTATYYCAGNYVRWGQGTLVTVSAGGGGSGGGGSGGGGSDVVMTQTPLTLSVTIGQPASISCKSSQSLLYTNGKTYLNWLLQRPGQSPKRLIYLVSKLDSGVPDRFSGSGSGTDFTLKISRVEAEDLGVYYCLQSSHFPHTFGSGTKLEIK
3 |  |  | 1.31 | 0.0966 nM | 0.039 nM | 0.027 nM | ≥ 20 fold | 20 fold | ~0.01 µg/mL | ~0.2 nM | 0.09 nM | antibody 26F1 (antibody, mouse IgG2a, kappa, V domains shown, Mouse monoclonal; Isotype is said to be preferably IgG2a kappa; also called 26F1 antibody; IgG 26F1) VH: DVQLQESGPGLVKPSQSLSLTCTVTGYSITSDYAWNWIRQFPGNKLEWLGYISYSGNTYYNPSLKSRISITRDTSKNQFFLHLNSVTTEDTATYYCAGNYVRWGQGTLVTVSA VL: not shown
